According to ChEMBL document CHEMBL2074257, “Expression cloning of a Na+-independent aromatic amino acid transporter with structural similarity to H+/monocarboxylate transporters” (J Biol Chem, 2001):

B1: Monocarboxylate transporter 10 (Rattus norvegicus), Q91Y77 (protein)
chain: MVPSQEEPAAAERETNEAQPPGPAPSDDAPLPVPGPSDVSDGSVEKVEVELTRSTGNQEPPEPPEGGWGWLVMLAAMWCNGSVFGIQNAYGVLFVSMLETFGAKDDDNMAFKAAWVGSLSMGMIFFCCPIVSVFTDMFGCRRTAVLGAAVGFVGLMSSSFVSSIEPLYFTYGVVFACGCSFAYQPSLVILGHYFKKRLGLVNGIVTAGSSVFTILLPLLLGNLTSTVGLCYTLRILCIFMFVLFLAGFTYRPLVPSSKEKESEDSRSSFFSRRKLSPPKKIFNFALFKETAYAVWAAGIPLALFGYFVPYVHLMNHVKERFKDVNNKEVLFMCIGVTSGVGRLLFGRIADYLPGVKKVYLQVLSFFFIGLTSMMIPLCSVFGALIALCLIMGLFDGCFISIMAPIAFELVGPQDASQAIGFLLGFMSIPMTVGPPVAGLLHDKLGSYDLAFYLAGIPPFIGGAVLCLIPWIHSKKQREISKNTGGEKMEKMLANQSSLLSSSSGIFKKESDSII

Legend:
[1] = target: T1, Monocarboxylate transporter 10 (Rattus norvegicus, UniProt Q91Y77); test: TP_TRANSPORTER: inhibition of L-tryptophan uptake in Xenopus laevis oocytes; type: functional, cell-based, Oocyte
T1 sequence (Q91Y77 whole entry): B1 chain

[2] = substrate: N[C@@H](Cc1c[nH]c2ccccc12)C(=O)O; details: Xenopus laevis; Oocyte
[3] = substrate: N[C@@H](Cc1ccc(O)c(O)c1)C(=O)O; details: Xenopus laevis; Oocyte
[4] = substrate: N[C@@H](Cc1ccc(O)cc1)C(=O)O; details: Xenopus laevis; Oocyte
[5] = substrate: N[C@@H](Cc1ccccc1)C(=O)O; details: Xenopus laevis; Oocyte

Molecule | Ki [1] | Km [2] | Km [3] | Km [4] | Km [5]
CC(=O)N[C@@H](Cc1c[nH]c2ccccc12)C(=O)O [ACETYLTRYPTOPHAN] | 1500 µM |  |  |  | 
CN[C@@H](Cc1c[nH]c2ccccc12)C(=O)O [ABRINE] | 3100 µM |  |  |  | 
B1 |  | 3.72 mM | 6.43 mM | 2.59 mM | 7.02 mM
